The chains are these.
B1: potato multicystatin (protein, UniProt P37842 1-756, looked up)
chain: MAIVGGLVDVPFENKVEFDDLARFAVQDYNQKNDSSLEFKKVLNVKQQIVAGIMYYITFEATEGGNKKEYEAKILLRKWEDLKKVVGFKLVGDDSTMPGGIVNVPNPNNTKFQELARFAIQDYNKKQNAHLEFVENLNVKEQVVAGIMYYITLAATDDAGKKKIYKAKIWVKEWEDFKKVVEFKLVGDDIAKLGGITDVPFPNNPEFQDLARFAIQVYNKKENVHLEFVENLNVKQQVVAGMMYYITLAAIDAGKKKIYETKIWVKEWEDFKKVVEFKLVGDDSAKTGGIINVPNPNSPEFQDLARFAVQDYNNTQNAHLEFVENLNVKEQLVSGMMYYITLAATDAGNKKEYEAKIWVKEWEDFKKVIDFKLVGNDSAKKLGGFTEVPFPNSPEFQDLTRFAVHQYNKDQNAHLEFVENLNVKKQVVAGMLYYITFAATDGGKKKIYETKIWVKVWENFKKVVEFKLVGDDSAKLGGIINVPFPNNPEFQDLARFAVQDYNKKENAHLEFVENLNVKEQLVAGMLYYITLVAIDAGKKKIYEAKIWVKEWENFKKVIEFKLIGDDSAIIGGFTDVPFPNNPEFQDLARFAVQDYNKKENAHLEYVENLNVKEQLVAGMIYYITLVATDAGKKKIYEAKIWVKEWEDFKKVVEFKLVGDDSAKPGGIIIVPFPNSPEFQDLARFAVQDFNKKENGHLEFVENLNVKEQVVAGMMYYITLAATDARKKEIYETKILVKEWENFKEVQEFKLVGDATK
B2: chicken cystatin (protein, UniProt P01038 24-139, looked up)
chain: SEDRSRLLGAPVPVDENDEGLQRALQFAMAEYNRASNDKYSSRVVRVISAKRQLVSGIKYILQVEIGRTTCPKSSGDLQSCEFHDEPEMAKYTTCTFVVYSIPWLNQIKLLESKCQ
B3: porcine stefin B (protein, UniProt Q29290 1-98, looked up)
chain: MMCGAPSATQPATAEIQAIADKVKSQLEEKENKTFPVFKAVEFKSQVVAGRNLFIKVQVDDDDFVHLRVFESLPHENKPLTLSSYQTNKSRHDELTYF
B4: human cystatin c (protein, UniProt P01034 27-146, looked up)
chain: SSPGKPPRLVGGPMDASVEEEGVRRALDFAVGEYNKASNDMYHSRALQVVRARKQIVAGVNYFLDVELGRTTCTKTQPNLDNCPFHDQPHLKRKAFCSFQIYAVPWQGTMTLSKSTCQDA
B5: porcine stefin D1 (protein, UniProt P35479 1-103, looked up)
chain: MESEEMLAGGLTEPRPATPEIQEIANKVKPQLEEKTNKTYEKFEAIIYRSQVVAGTNYYIKVHVGGNNYVHIRVFQSLPHQEDPLKLIGYQVDKTKDDELTGF
B6: rat stefin A (protein, UniProt P01039 1-103, looked up)
chain: MDPGTTGIVGGVSEAKPATPEIQEVADKVKRQLEEKTNEKYEKFKVVEYKSQVVAGQILFMKVDVGNGRFLHMKVLRGLSGDDDLKLLDYQTNKTKNDELTDF
B7: Recombinant Kunitz PCPI8.3 (produced in Pichia pastoris) (protein, potato, UniProt P20347 43-222, looked up)
chain: LVLPEVYDQDGNPLRIGERYIINNPLLGAGAVYLYNIGNLQCPNAVLQHMSIPQFLGEGTPVVFVRKSESDYGDVVRVMTVVYIKFFVKTTKLCVDQTVWKVNDEQLVVTGGKVGNENDIFKIMKTDLVTPGGSKYVYKLLHCPSHLGCKNIGGNFKNGYPRLVTVDDDKDFIPFVFIKA
B8: bovine kininogen: Type III cystatin (protein, UniProt P01044 19-621, looked up)
Kininogen-1: QESSQEIDCNDQDVFKAVDAALTKYNSENKSGNQFVLYRITEVARMDNPDTFYSLKYQIKEGDCPFQSNKTWQDCDYKDSAQAATGECTATVAKRGNMKFSVAIQTCLITPAEGPVVTAQYECLGCVHPISTKSPDLEPVLRYAIQYFNNNTSHSHLFDLKEVKRAQRQVVSGWNYEVNYSIAQTNCSKEEFSFLTPDCKSLSSGDTGECTDKAHVDVKLRISSFSQKCDLYPVKDFVQPPTRLCAGCPKPIPVDSPDLEEPLSHSIAKLNAEHDGAFYFKIDTVKKATVQVVAGLKYSIVFIARETTCSKGSNEELTKSCEINIHGQILHCDANVYVVPWEEKVYPTVNCQPLGQTSLMKRPPGFSPFRSVQVMKTEGSTTVSLPHSAMSPVQDEERDSGKEQGPTHGHGWDHGKQIKLHGLGLGHKHKHDQGHGHHGSHGLGHGHQKQHGLGHGHKHGHGHGKHKNKGKNNGKHYDWRTPYLASSYEDSTTSSAQTQEKTEETTLSSLAQPGVAITFPDFQDSDLIATVMPNTLPPHTESDDDWIPDIQTEPNSLAFKLISDFPETTSPKCPSRPWKPVNGVNPTVEMKESHDFDLVDALL

For the first experiment, the target named is potato protease inhibitor-insensitive cysteine proteases of Colorado potato beetle (Leptinotarsa decemlineata) larval gut extracts. The experiment can be described thus: cell-based or functional assay.
cowpea cystatin: the residual general proteolytic activity (azocasein) in excess of inhibitor (% residual activity) came to 75.
In turn, “human kininogen 3rd domain (from UniProt P01042 273-376)” displayed a residual general proteolytic activity (azocasein) in excess of inhibitor (% residual activity) of 20.
Still for that read-out and setting: under lens cystatin stands 60.
“Recombinant human stefin A (from UniProt P01040 1-98)” showed a residual amino-peptidase activity (L-Arg-pNA), equimolar inhibitor (% of residual activity) of 60; a residual amino-peptidase activity (L-Arg-pNA), excess inhibitor (% of residual activity) of 10; a residual broad spectrum endoprotease activity (Z-Phe-Arg-pNA), equimolar inhibitor (% of residual activity) of 95; a residual broad spectrum endoprotease activity (Z-Phe-Arg-pNA), excess inhibitor (% of residual activity) of 80. This molecule also yielded a residual general proteolytic activity (azocasein) in excess of inhibitor (% residual activity) of 90; a residual narrow spectrum endoprotease activity (Z-Arg-Arg-pNA), excess inhibitor (% of residual activity) of 90; a residual tri-peptidil-peptidase and endoprotease activity (pGlu-Phe-Leu-pNA), equimolar inhibitor (% of residual activity) of 95; a residual tri-peptidil-peptidase and endoprotease activity (pGlu-Phe-Leu-pNA), excess inhibitor (% of residual activity) of 90.
The molecule Chelidonium majus cystatin gave a residual general proteolytic activity (azocasein) in excess of inhibitor (% residual activity) of 100.
In turn, “porcine stefin D2 (from UniProt P80736 1-35)” returned a residual general proteolytic activity (azocasein) in excess of inhibitor (% residual activity) of 105.
Still for that read-out and setting: under bromelain inhibitor stands 110; under soybean cystatin, 65; under bovine kininogen, 110.
“human LMW kininogen (from UniProt P01042 19-427)” came in with a residual general proteolytic activity (azocasein) in excess of inhibitor (% residual activity) of 65.
Same read-out and setting: under PCPI 6.6 stands 120.
The same measure, in the same setting: under B1 stands 90; under B2, 105.
With B3, the residual general proteolytic activity (azocasein) in excess of inhibitor (% residual activity) was determined as 100.
The molecule B4 returned a residual general proteolytic activity (azocasein) in excess of inhibitor (% residual activity) of 105.
On the same count and under the same terms, under B5 stands 105.
Molecule B6 displayed a residual general proteolytic activity (azocasein) in excess of inhibitor (% residual activity) of 90.

The target of a further experiment is proteases in extracts of adult leafminer flies (Liriomyza trifolii). The experiment can be described thus: cell-based or functional assay.
In turn, “Aspartic protease inhibitor (API) purified from potato” gave a residual protease activity (FITC-hemoglobin), pH 3.5 (% residual activity) of 37.
Still for that read-out and setting: under “Recombinant potato cystatin (p.cystatin), a monomer of multicystatin expressed as a fusion protein with glutathione-S-transferase” stands 73.
Turning to B7, the residual protease activity (FITC-hemoglobin), pH 3.5 (% residual activity) was determined as 43.

The subject of a further experiment is Colorado potato beetle larval gut extracts (potato protease inhibitor-insensitive cysteine proteases). Put plainly: General proteolytic activity of Colorado potato beetle larval gut extracts, azocasein. It is filed as biochemical, Leptinotarsa decemlineata. The source says:
Guts of final instar Colorado potato beetle larvae reared on methyl jasmonate induced plants were isolated and extracted essentially as described (Bolter and Jongsma, J. Insect Physiol. 41: 1071-1078). In these gut extracts the proteases that are sensitive to the protease inhibitors of potato are already complexed. The residual protease activity is composed of potato protease-inhibitor-insensitive proteases which were induced in response to the methyl jasmonate induced potato inhibitors. These proteases are the proteases that render the beetle larvae insensitive to protease inhibitor defense of the potato plant. Wle tested a broad range of different cysteisie protease inhibitors for activity specifically against these induced potato protease inhibitor-insensitive cysteine protesses. Nearly all of these inhibitors were purified at the Jozef Stefan Institute in Slovenia. Testing their potential against Colorado potato beetle was done using both general protein substrates (azocasein, table 2) as well as specific synthetic substrates (L-Arg-pNA, table 3; pGlu-Phe-Leu-pNA, table 4; Z-Phe-Arg-pNA, table 5; Z-Arg-Arg-pNA, table 6). In specific cases inhibitors were tested at two concentrations, eauimolar and in excess to the protease, in order to obtain an indication of the tightness of the complex. […] Importantly, this class of inhibitors was capable of inhibiting nearly all general cysteine protease activity. The equistatin peptide molecule and a functional derivative thereof were not very active against the aminopeptidase-like cysteine protease activity. […] The best combination of inhibitors for full toxicity against the Colorado potato beetle would therefore be a combination of equistatin or p41 invariant chain fragment and stefin-like inhibitors.
With B1, the “Residual activity in excess of inhibitor” value is listed as 90%.
Same read-out and setting: under B2 stands 105%; under B3, 100%.
On to B4, for which the “Residual activity in excess of inhibitor” value came out at 105%.
Still for that read-out and setting: under B8 stands 110%.
